# According to patent publication US8716237B2, “Methods for the treatment or prevention of hemorrhagic conditions” (University of Rochester, priority 2007, dated 2014):
# B1: deubiquitinating enzyme CYLD (protein)
# chain: MSSGLWSQEKVTSPYWEERIFYLLLQECSVTDKQTQKLLKVPKGSIGQYIQDRSVGHSRIPSAKGKKNQIGLKILEQPHAVLFVDEKDVVEINEKFTELLLAITNCEERFSLFKNRNRLSKGLQIDVGCPVKVQLRSGEEKFPGVVRFRGPLLAERTVSGIFFGVELLEEGRGQGFTDGVYQGKQLFQCDEDCGVFVALDKLELIEDDDTALESDYAGPGDTMQVELPPLEINSRVSLKVGETIESGTVIFCDVLPGKESLGYFVGVDMDNPIGNWDGRFDGVQLCSFACVESTILLHINDIIPALSESVTQERRPPKLAFMSRGVGDKGSSSHNKPKATGSTSDPGNRNRSELFYTLNGSSVDSQPQSKSKNTWYIDEVAEDPAKSLTEISTDFDRSSPPLQPPPVNSLTTENRFHSLPFSLTKMPNTNGSIGHSPLSLSAQSVMEELNTAPVQESPPLAMPPGNSHGLEVGSLAEVKENPPFYGVIRWIGQPPGLNEVLAGLELEDECAGCTDGTFRGTRYFTCALKKALFVKLKSCRPDSRFASLQPVSNQIERCNSLAFGGYLSEVVEENTPPKMEKEGLEIMIGKKKGIQGHYNSCYLDSTLFCLFAFSSVLDTVLLRPKEKNDVEYYSETQELLRTEIVNPLRIYGYVCATKIMKLRKILEKVEAASGFTSEEKDPEEFLNILFHHILRVEPLLKIRSAGQKVQDCYFYQIFMEKNEKVGVPTIQQLLEWSFINSNLKFAEAPSCLIIQMPRFGKDFKLFKKIFPSLELNITDLLEDTPRQCRICGGLAMYECRECYDDPDISAGKIKQFCKTCNTQVHLHPKRLNHKYNPVSLPKDLPDWDWRHGCIPCQNMELFAVLCIETSHYVAFVKYGKDDSAWLFFDSMADRDGGQNGFNIPQVTPCPEVGEYLKMSLEDLHSLDSRRIQGCARRLLCDAYMCMYQSPTMSLYK
# B2: rPAI-1: mouse recombinant plasminogen activator inhibitor-1, purchased from Calbiochem; Example 20 uses recombinant stable wild-type PAI-1 (protein, UniProt P22777 23-402, looked up)
# Plasminogen activator …: TLPLRESHTAHQATDFGVKVFQQVVQASKDRNVVFSPYGVSSVLAMLQMTTAGKTRRQIQDAMGFKVNEKGTAHALRQLSKELMGPWNKNEISTADAIFVQRDLELVQGFMPHFFKLFQTMVKQVDFSEVERARFIINDWVERHTKGMINDLLAKGAVDELTRLVLVNALYFSGQWKTPFLEASTHQRLFHKSDGSTVSVPMMAQSNKFNYTEFTTPDGLEYDVVELPYQRDTLSMFIAAPFEKDVHLSALTNILDAELIRQWKGNMTRLPRLLILPKFSLETEVDLRGPLEKLGMPDMFSATLADFTSLSDQEQLSVAQALQKVRIEVNESGTVASSSTAFVISARMAPTEMVIDRSFLFVVRHNPTETILFMGQVMEP
# Tests used:
# CYLD = CYLD expression up-regulation by bacterial agonists for TLR2
# Cyld−/− mice = assay: Survival of Cyld−/− mice inoculated with S. pneumoniae after pretreatment; format: in vivo, mouse; conditions: wedelolactone 10 mg/kg intraperitoneally 2 hours before S.p. inoculation
# Description: (§1) For S. pneumoniae-induced lethal infections in wild type, Cyld^−/−, Mkk3^−/−, and PAI-1^−/− mice, anaesthetized mice were intratracheally inoculated with live S. pneumoniae, S. pneumoniae wild type or pneumolysin mutant lysate, or pneumolysin (“PLY”), at a concentration of 5×10^7CFU per mouse for live bacteria and bacterial lysate and 200 ng/mouse for PLY in all experiments unless otherwise indicated, and saline was inoculated as control. The mice were monitored for lethality every 2 hours for the first 12 hours and every 12 hours for 5 days thereafter. To assess the effect of perturbing p38 MAPK signaling on S. pneumoniae-induced lethality in Cyld^−/− mice, Cyld^−/− mice were pretreated with the p38 inhibitor SB203580 (10 mg/kg, intraperitoneally in Cyld^−/− mice) 2 hours before S. pneumoniae inoculation, and mice were then intratracheally inoculated with S. pneumoniae. To determine the effect of administration of exogenous PAI-1 on S. pneumoniae-induced lethality, mice were intratracheally administered with mouse rPAI-1 (12.5 μg/mouse) or saline as control, followed by S. pneumoniae and PLY inoculation 1 day after PAI-1 administration. For PAI-1 neutralization in Cyld^−/− mice, Cyld^−/− mice were intraperitoneally injected with α-PAI-1 mAb (25 μg/mouse for histological analysis and 50 μg/mouse for lethality) 2 hours before S. pneumoniae inoculation. Mouse IgG was used as control. […] Lung tissues were then subjected to histological analysis and total mRNA and protein extraction. In all Examples, saline was used as a control unless otherwise specified.
# To assess the effect of perturbing NF-κB signaling on S.p.-induced lethality in Cyld^−/− mice, Cyld^−/− mice were pretreated with the IKK inhibitor Wedelolactone (10 mg/kg, intraperitoneally) 2 hours before S.p. inoculation, and mice were then intratracheally inoculated with S.p.
# (§2) Differences in survival between wild-type, Cyld-deficient (“Cyld^−/−”), Mkk3-deficient (“Mkk3^−/−”), and PAI/−/−deficient (“PAI-1^−/−”) mice after saline, S. pneumoniae, S. pneumoniae lysate, and/or pneumolysin inoculation with or without SB203580, rPAI-1, or α-PAI-1 mAb were determined by Kaplan-Meier analysis. All tests were performed using SPSS14.0 software (SPSS Inc.). All in vivo survival rate data were evaluated by Log Lank test. All other in vivo and in vitro data were evaluated by Student t-test. Statistical significance was accepted at a value of p<0.05.
# TRAF7, Q6Q0C0 = target: T1, TRAF7, Q6Q0C0
# T1 chain: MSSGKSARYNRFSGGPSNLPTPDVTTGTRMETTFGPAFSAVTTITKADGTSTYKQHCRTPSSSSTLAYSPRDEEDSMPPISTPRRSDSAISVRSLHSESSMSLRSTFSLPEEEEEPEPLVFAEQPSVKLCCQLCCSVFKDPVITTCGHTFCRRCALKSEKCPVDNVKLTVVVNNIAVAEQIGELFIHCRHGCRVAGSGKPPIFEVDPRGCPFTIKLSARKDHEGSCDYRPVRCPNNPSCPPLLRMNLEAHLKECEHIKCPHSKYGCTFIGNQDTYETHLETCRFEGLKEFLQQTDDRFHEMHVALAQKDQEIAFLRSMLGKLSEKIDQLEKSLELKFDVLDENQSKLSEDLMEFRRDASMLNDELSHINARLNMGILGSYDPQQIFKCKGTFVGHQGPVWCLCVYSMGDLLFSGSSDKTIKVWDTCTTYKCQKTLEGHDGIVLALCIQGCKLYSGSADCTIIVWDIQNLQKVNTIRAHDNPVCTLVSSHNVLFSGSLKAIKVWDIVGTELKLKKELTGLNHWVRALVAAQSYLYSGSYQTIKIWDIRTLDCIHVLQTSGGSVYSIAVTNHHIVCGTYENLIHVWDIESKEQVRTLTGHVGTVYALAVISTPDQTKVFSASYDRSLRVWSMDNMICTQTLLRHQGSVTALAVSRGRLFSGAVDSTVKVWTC
# [1] = target: T2, tumor necrosis factor receptor-associated factor 6, Q9Y4K3
# T2 chain: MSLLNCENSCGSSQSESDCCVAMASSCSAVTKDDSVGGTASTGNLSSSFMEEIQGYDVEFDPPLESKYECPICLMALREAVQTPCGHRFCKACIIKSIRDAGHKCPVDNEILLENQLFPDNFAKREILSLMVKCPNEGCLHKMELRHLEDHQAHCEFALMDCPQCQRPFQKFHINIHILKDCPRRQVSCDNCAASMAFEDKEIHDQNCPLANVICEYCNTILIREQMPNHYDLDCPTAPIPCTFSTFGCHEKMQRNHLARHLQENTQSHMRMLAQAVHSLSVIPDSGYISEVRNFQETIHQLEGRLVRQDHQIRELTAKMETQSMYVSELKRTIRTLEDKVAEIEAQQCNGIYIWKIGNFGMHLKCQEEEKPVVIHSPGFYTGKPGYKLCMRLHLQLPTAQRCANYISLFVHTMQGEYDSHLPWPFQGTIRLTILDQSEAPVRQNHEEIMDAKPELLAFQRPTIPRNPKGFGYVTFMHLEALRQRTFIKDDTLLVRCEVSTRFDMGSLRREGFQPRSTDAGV
# wild type mice [2] = assay: Survival of wild type mice inoculated with S. pneumoniae D39 lysate or PLY after rPAI-1 pre-administration; format: in vivo, mouse; conditions: for mortality rate / lethality in mice inoculated with S. pneumoniae: rPAI-1 12.5 μg/mouse intratracheally 1 day before S. pneumoniae D39 lysate
# Description: as §1
# Differences in survival between wild-type, Cyld-deficient (“Cyld^−/−”), Mkk3-deficient (“Mkk3^−/−”), and PAI/−/−deficient (“PAI-1^−/−”) mice after saline, S. pneumoniae, S. pneumoniae lysate, and/or pneumolysin inoculation with or without SB203580, rPAI-1, or α-PAI-1 mAb were determined by Kaplan-Meier analysis. All tests were performed using SPSS14.0 software (SPSS Inc.). All in vivo survival rate data were evaluated by Log Lank test. All other in vivo and in vitro data were evaluated by Student t-test. […]
# wild type mice [3] = assay: Pathological and histological analysis of lungs (alveolar hemorrhage) of wild type mice; format: in vivo, mouse; conditions: wild type mice inoculated with rPAI-1
# Description: For S. pneumoniae-induced lethal infections in wild type, Cyld^−/−, Mkk3^−/−, and PAI-1^−/− mice, anaesthetized mice were intratracheally inoculated with live S. pneumoniae, S. pneumoniae wild type or pneumolysin mutant lysate, or pneumolysin (“PLY”), at a concentration of 5×10^7CFU per mouse for live bacteria and bacterial lysate and 200 ng/mouse for PLY in all experiments unless otherwise indicated, and saline was inoculated as control. The mice were monitored for lethality every 2 hours for the first 12 hours and every 12 hours for 5 days thereafter. To assess the effect of perturbing p38 MAPK signaling on S. pneumoniae-induced lethality in Cyld^−/− mice, Cyld^−/− mice were pretreated with the p38 inhibitor SB203580 (10 mg/kg, intraperitoneally in Cyld^−/− mice) 2 hours before S. pneumoniae inoculation, and mice were then intratracheally inoculated with S. pneumoniae. […]
# For histological analysis, dissected lungs were fixed with 10% buffered neutral formalin overnight with rocking followed by routine processing, embedded in paraffin, and sectioned at about 4 μm thickness. […] H&E-stained lung tissue slides were evaluated by light microscopy using Axiovert 40 CFL (Carl Zeiss), and images were recorded with an AxioCam MRC (Carl Zeiss).
# Tlr4−/− mice = assay: Survival of Tlr4-deficient mice after pneumolysin inoculation with or without rPAI-1 pre-administration; format: in vivo; conditions: intratracheal PLY with mouse rPAI-1 pre-administration
# Description: as §2
# To further determine whether exogenous rPAI-1 also reduces mortality rate in Tlr4^−/− mice, Tlr4^−/− mice were intratracheally inoculated with PLY with or without mouse rPAI-1 pre-administration, and viability was assessed.
# [4] = mouse, in vivo, 0.6 mg/kg
# Description: The efficacy of intratracheal administration of rPAI-1 was evaluated by assessing the presence and function of recombinant PAI-1 in mice. It was first determined whether exogenous PAI-1 is evenly distributed in the lungs of mice after intratracheal inoculation of recombinant stable PAI-1. Recombinant stable wild-type PAI-1 was first labeled with fluorescent dyes using an Alexa Flour 488 protein-labeling kit (Molecular Probes, Eugene, Oreg.) (Herbein & Wright, “Enhanced Clearance of Surfactant Protein D During LPS-induced Acute Inflammation in Rat Lung,” Am. J. Physiol. Lung Cell. Mol. Physiol. 281:L268-L277 (2001), which is hereby incorporated by reference in its entirety). Alexa dyes were selected because their magnitude of fluorescence is constant from pH 4 to 10 and they have a low level of photobleaching compared with similar fluorescent dyes used for protein labeling. […]
# To determine whether the exogenously inoculated rPAI-1 is also functional, the in vivo functional activity of intratracheally inoculated rPAI-1 was measured in lungs of mice using ELISA kits from Molecular Innovations. […]
molecule,measurement,setting,value
peptidoglycan,CYLD expression,CYLD,up-regulated
MALP-2,CYLD expression,CYLD,up-regulated
Pam3CSK4,CYLD expression,CYLD,up-regulated
COc1cc(O)c2c(c1)oc(=O)c1c3cc(O)c(O)cc3oc21 [Wedelolactone],survival rate,Cyld−/− mice,did not greatly alter the survival rate
B1,NTHi-induced inflammatory response,"TRAF7, Q6Q0C0",CYLD inhibition of this inflammatory response was achieved via deubiquitinating TRAF6 and TRAF7
same,ubiquitination of TRAF7,"TRAF7, Q6Q0C0","Overexpression of WT CYLD reduced, whereas siRNA knock-down of CYLD enhanced, the ubiquitination of TRAF6 and TRAF7"
same,NTHi-induced inflammatory response,[1],CYLD inhibition of this inflammatory response was achieved via deubiquitinating TRAF6 and TRAF7
same,ubiquitination of TRAF6,[1],"Overexpression of WT CYLD reduced, whereas siRNA knock-down of CYLD enhanced, the ubiquitination of TRAF6 and TRAF7"
B2,mortality rate / lethality in mice inoculated with S. pneumoniae,wild type mice [2],greatly reduced the mortality rate
same,mortality rate / lethality in mice inoculated with S. pneumoniae,wild type mice [2]; listed as recombinant PAI-1,protected mice from S.p.-induced lethality
same,mortality rate in mice inoculated with PLY,wild type mice [2]; rPAI-1 12.5 μg/mouse intratracheally 1 day before pneumolysin,greatly reduced the mortality rate
same,PLY-induced alveolar hemorrhage,wild type mice [3],prevented
same,S. pneumoniae-induced alveolar (lung) hemorrhage,wild type mice [3],prevented
same,protection from lethal PLY challenge (viability),Tlr4−/− mice,fully protected mice from lethal challenge
same,distribution of intratracheally inoculated rPAI-1 in the lungs,[4],widely distributed in the lungs
